Test results from patent US20100004431A1 (Xencor, published 2010).
Where a chain is given by its changes, count along the chain named. Numbers in names are those of the source. Read-outs that look alike come from different tables or passages of the source. One block for each binder: values may come before it.

Experiments:
[1] = molecular target: T1, CD25 (R&D systems cat. #223-2A/CF) (UniProt P01589 22-213, limits assumed); test: Biacore (SPR); antibody captured on Protein A, CD25 injected
T1 construct: Bought soluble protein
T1 sequence (looked up): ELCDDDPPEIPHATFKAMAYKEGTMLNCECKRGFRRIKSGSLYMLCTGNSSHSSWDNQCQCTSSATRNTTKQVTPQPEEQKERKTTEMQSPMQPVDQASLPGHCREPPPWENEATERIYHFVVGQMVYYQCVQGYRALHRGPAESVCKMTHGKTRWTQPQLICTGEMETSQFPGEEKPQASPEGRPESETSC
Description: (§1) Binding was measured by injection of two-fold serial dilutions of CD25 (0 nM to 50 nM; R&D systems) in buffer at 25° C. with a flow rate of 25-30 μL/min for 2 min followed by a dissociation phase of 4-5 min. Association rates (kₒₙ) and dissociation rates (koff) were calculated using a simple one-to-one Langmuir binding model (BIAcore Evaluation Software version 3.2). The equilibrium dissociation constant (Kd) was calculated as the ratio of koff/kₒₙ).

[2] = molecular target: T1, CD25 (R&D systems cat. #223-2A/CF); test: as above; remark: listed apart in the source
Description: as §1

[3] = molecular target: T1, CD25 (R&D systems cat. #223-2A/CF); test: Biacore blocking assay; antibody injected over CD25 coupled to a CM5 chip, then 100 nM rh-IL2; blocked ligand IL-2
Description: The chip was regenerated after each cycle by injection of glycine buffer @ pH 1.5 for 30 sec at 10 μL/min.

[4] = molecular target: T1, CD25 (R&D systems cat. #223-2A/CF); test: SPR (Biacore)
Description: as §1

[5] = molecular target: T2, VEGF (UniProt P15692-4 27-191, limits assumed); test: Biacore (SPR); Fab injected over immobilized VEGF
Description: (§2) For kinetic analysis of anti-VEGF antibodies, VEGF was coupled to an activated CM5 biosensor chip using standard NHS-EDC chemistry by injecting 200 nM VEGF at a flow rate of 2 μL/min for 10 min. […] Association rates (kₒₙ) and dissociation rates (koff) were calculated using a simple one-to-one Langmuir binding model (BIAcore Evaluation Software version 3.2). The equilibrium dissociation constant (Kd) was calculated as the ratio of koff/kₒₙ.

[6] = molecular target: T2, VEGF; test: SPR (Biacore), VEGF on CM5 chip, Fab injected
Description: as §2

[7] = molecular target: T3, TNFα (UniProt P01375 77-233); test: SPR (Biacore), TNFα on CM5 chip, Fab injected
Description: (§3) For kinetic analysis of anti-TNFα antibodies, TNFα was coupled to an activated CM5 biosensor chip using standard NHS-EDC chemistry by injecting 200 nM TNFα at a flow rate of 2 μL/min for 10 min. […] For subsequent cycles, the chip was regenerated using pH4.0 acetate buffer. Association rates (kₒₙ) and dissociation rates (koff) were calculated using a simple one-to-one Langmuir binding model (BIAcore Evaluation Software version 3.2). The equilibrium dissociation constant (Kd) was calculated as the ratio of koff/kₒₙ.

[8] = molecular target: T3, TNFα; test: SPR (Biacore), TNFα on CM5 chip, Fab injected; mean of two runs ± SD
Description: as §3

T3 sequence (P01375 77-233 limits assumed): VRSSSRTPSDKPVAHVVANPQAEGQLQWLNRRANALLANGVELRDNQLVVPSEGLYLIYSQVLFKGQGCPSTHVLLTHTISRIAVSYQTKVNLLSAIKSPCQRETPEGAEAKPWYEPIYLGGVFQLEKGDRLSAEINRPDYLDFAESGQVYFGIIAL
T2 sequence (P15692 other isoform, or with tags, fused parts or gaps limits assumed): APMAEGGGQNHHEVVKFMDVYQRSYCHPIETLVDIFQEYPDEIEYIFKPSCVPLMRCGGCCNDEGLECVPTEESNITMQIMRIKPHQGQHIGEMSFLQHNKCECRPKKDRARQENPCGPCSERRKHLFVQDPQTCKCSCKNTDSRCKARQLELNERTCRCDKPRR

Fold change in Kd vs. H1L1 [1]: 2 fold
Kd [1]: 0.16 nM
koff [1]: 0.00031 s⁻¹
kon [1]: 1.9e+06 M⁻¹ s⁻¹
B1: anti-CD25 H1.1L1 (antibody, V domains shown)
VH: QVQLVQSGAEVKKPGASVKVSCKASGYTFTSYRMHWVRQAPGQGLEWMGYINPSTGYTEYNQKFQGRVTITRDKSISTAYMELSRLRSDDTAVYYCARGGGVFDYWGQGTLVTVSS
VL: QIVLTQSPATLSLSPGERATLSCRASSSISYMHWFQQKPGQSPQLLIYTTSNLASGVPARFSGSGSGTDYTLTISSLQPEDFAVYYCHQRSTYPLTFGSGTKLEIK
notes: Single variant in the anti-CD25 H1L1 background; also called VH A71R single variant

Fold change in Kd vs. H0L0 [2]: 1.2 fold
Kd [2]: 0.21 nM
koff [2]: 0.0002 s⁻¹
kon [2]: 950000 M⁻¹ s⁻¹
B2: anti-CD25 H1.23L1.56 (antibody, V domains shown)
VH: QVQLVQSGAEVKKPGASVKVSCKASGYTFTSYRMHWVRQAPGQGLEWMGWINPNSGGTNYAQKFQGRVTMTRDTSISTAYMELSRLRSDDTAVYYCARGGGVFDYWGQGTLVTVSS
VL: B1 VL with S27Q, I29V, M32L, L53R, S55T, V57I, Y70F, Q78E

Fold change in Kd vs. H0L0 [2]: 1.6 fold
Kd [2]: 0.16 nM
koff [2]: 0.00012 s⁻¹
kon [2]: 730000 M⁻¹ s⁻¹
IC50 (read off the curve) [3]: ~40 nM
B3: anti-CD25 H1.23L1.43 (antibody, IgG1, V domains shown)
VH: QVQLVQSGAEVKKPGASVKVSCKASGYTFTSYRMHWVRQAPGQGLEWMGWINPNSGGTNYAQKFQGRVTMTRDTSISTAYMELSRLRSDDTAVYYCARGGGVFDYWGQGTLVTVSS
VL: B1 VL with Q1E, S27Q, I29V, M32L, F35Y, S42A, Q44R, L53R, S55T, V57I
notes: IgG1 format

Fold change in Kd vs. H1L1 [1]: 1 fold
Kd [1]: 0.31 nM
koff [1]: 0.00058 s⁻¹
kon [1]: 1.9e+06 M⁻¹ s⁻¹
B4: anti-CD25 H1L1.9 (antibody, V domains shown)
VH: B1 VH with R72A
VL: B1 VL with S42A
notes: Single variant in the anti-CD25 H1L1 background; also called VL S43A single variant

Fold change in Kd vs. H1L1 [1]: 1.2 fold
Kd [1]: 0.26 nM
koff [1]: 0.00042 s⁻¹
kon [1]: 1.6e+06 M⁻¹ s⁻¹
B5: anti-CD25 H1L1.16 (antibody, V domains shown)
VH: B1 VH with R72A
VL: B1 VL with F35Y
notes: Single variant in the anti-CD25 H1L1 background; also called VL F36Y single variant

fold tighter binding than anti-CD25 H1L1 [4]: 2.4 fold
Fold change in Kd vs. H0L0 [2]: -1.4 fold
Kd [2]: 0.36 nM
koff [2]: 0.00028 s⁻¹
kon [2]: 770000 M⁻¹ s⁻¹
B6: anti-CD25 H1.14L1 (antibody, IgG1, V domains shown)
VH: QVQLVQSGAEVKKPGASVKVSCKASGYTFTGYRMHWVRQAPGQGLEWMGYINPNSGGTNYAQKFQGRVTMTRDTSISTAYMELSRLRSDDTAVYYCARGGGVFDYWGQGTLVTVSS
VL: B1 VL
notes: IgG1 format

Fold change in Kd vs. H1L1 [1]: 1.2 fold
Kd [1]: 0.28 nM
koff [1]: 0.00054 s⁻¹
kon [1]: 2e+06 M⁻¹ s⁻¹
B7: anti-CD25 H1L1.7 (antibody, V domains shown)
VH: B1 VH with R72A
VL: B1 VL with Q78E
notes: Single variant in the anti-CD25 H1L1 background; also called VL Q79E single variant

Fold change in Kd vs. H1L1 [1]: 1.1 fold
Kd [1]: 0.3 nM
koff [1]: 0.0006 s⁻¹
kon [1]: 2e+06 M⁻¹ s⁻¹
B8: anti-CD25 H1.4L1 (antibody, V domains shown)
VH: B1 VH with R72A, K74T
VL: B1 VL
notes: Single variant in the anti-CD25 H1L1 background; also called VH K73T single variant

fold tighter binding than anti-CD25 H1L1 [4]: 4.4 fold
Fold change in Kd vs. H0L0 [2]: 1.3 fold
Kd [2]: 0.2 nM
koff [2]: 0.00019 s⁻¹
kon [2]: 950000 M⁻¹ s⁻¹
B9: anti-CD25 H1.23L1 (antibody, IgG1, V domains shown)
VH: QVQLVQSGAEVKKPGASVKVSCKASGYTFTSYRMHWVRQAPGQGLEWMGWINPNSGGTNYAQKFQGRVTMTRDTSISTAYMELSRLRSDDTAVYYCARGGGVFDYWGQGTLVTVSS
VL: B1 VL
notes: IgG1 format

Fold change in Kd vs. H1L1 [1]: -1.1 fold
Kd [1]: 0.35 nM
koff [1]: 0.0006 s⁻¹
kon [1]: 1.7e+06 M⁻¹ s⁻¹
B10: anti-CD25 H1L1.13 (antibody, V domains shown)
VH: B1 VH with R72A
VL: B1 VL with V57I
notes: Single variant in the anti-CD25 H1L1 background; also called VL V58I single variant

Fold change in Kd vs. H1L1 [1]: 1.1 fold
Kd [1]: 0.29 nM
koff [1]: 0.00052 s⁻¹
kon [1]: 1.8e+06 M⁻¹ s⁻¹
B11: anti-CD25 H1L1.5 (antibody, V domains shown)
VH: B1 VH with R72A
VL: B1 VL with Q1E
notes: Single variant in the anti-CD25 H1L1 background; also called VL Q1E single variant

Fold change in Kd vs. H1L1 [1]: 1 fold
Kd [1]: 0.32 nM
koff [1]: 0.00057 s⁻¹
kon [1]: 1.8e+06 M⁻¹ s⁻¹
B12: anti-CD25 H1L1.6 (antibody, V domains shown)
VH: B1 VH with R72A
VL: B1 VL with Q44R
notes: Single variant in the anti-CD25 H1L1 background; also called VL Q45R single variant

Fold change in Kd vs. H1L1 [1]: 1.2 fold
Kd [1]: 0.27 nM
koff [1]: 0.00048 s⁻¹
kon [1]: 1.8e+06 M⁻¹ s⁻¹
B13: anti-CD25 H1L1.14 (antibody, V domains shown)
VH: B1 VH with R72A
VL: B1 VL with Y70F
notes: Single variant in the anti-CD25 H1L1 background; also called VL Y71F single variant

fold tighter binding than anti-CD25 H1L1 [4]: 8 fold
Fold change in Kd vs. H0L0 [2]: 2.3 fold
Kd [2]: 0.11 nM
koff [2]: 0.00012 s⁻¹
kon [2]: 1.1e+06 M⁻¹ s⁻¹
B14: anti-CD25 H1.12L1 (antibody, IgG1, V domains shown)
VH: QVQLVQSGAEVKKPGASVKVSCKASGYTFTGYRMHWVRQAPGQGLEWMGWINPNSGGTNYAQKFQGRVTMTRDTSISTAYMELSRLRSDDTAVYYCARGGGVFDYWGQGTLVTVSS
VL: B1 VL
notes: IgG1 format

fold tighter binding than anti-CD25 H1L1 [4]: 4.9 fold
Fold change in Kd vs. H0L0 [2]: 1.5 fold
Kd [2]: 0.18 nM
koff [2]: 0.00017 s⁻¹
kon [2]: 980000 M⁻¹ s⁻¹
B15: anti-CD25 H1.22L1 (antibody, IgG1, V domains shown)
VH: B1 VH with Y50W, S54N, T55S, Y57G, E59N, N61A, K74T
VL: B1 VL
notes: IgG1 format

fold tighter binding than anti-CD25 H0L0 [4]: ~1.5 fold
Kd [2]: 0.17 nM
koff [2]: 0.00013 s⁻¹
kon [2]: 750000 M⁻¹ s⁻¹
IC50 (read off the curve) [3]: ~40 nM
B16: anti-CD25 H1.12L1.20 (antibody, V domains shown)
VH: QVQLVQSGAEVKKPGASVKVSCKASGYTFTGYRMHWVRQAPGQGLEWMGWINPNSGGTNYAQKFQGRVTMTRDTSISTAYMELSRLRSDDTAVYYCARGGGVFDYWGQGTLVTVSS
VL: EIVLTQSPATLSLSPGERATLSCRASQSVSYLHWYQQKPGQAPRLLIYTTSNRATGIPARFSGSGSGTDFTLTISSLEPEDFAVYYCHQRSTYPLTFGSGTKLEIK
notes: IgG1 format; It has twenty-two mutations against anti-CD25 H1L1; copies: 2 + 2

fold tighter binding than anti-CD25 H1L1 [4]: 5.9 fold
Fold change in Kd vs. H0L0 [2]: 1.7 fold
Kd [2]: 0.15 nM
koff [2]: 0.00012 s⁻¹
kon [2]: 800000 M⁻¹ s⁻¹
B17: anti-CD25 H1.12L1.48 (antibody, IgG1, V domains shown)
VH: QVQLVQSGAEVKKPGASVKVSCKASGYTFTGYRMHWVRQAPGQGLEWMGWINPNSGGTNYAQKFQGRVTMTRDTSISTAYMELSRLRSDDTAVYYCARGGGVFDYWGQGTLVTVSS
VL: B16 VL with L32M
notes: IgG1 format

fold tighter binding than anti-CD25 H1L1 [4]: 1.8 fold
Fold change in Kd vs. H0L0 [2]: -1.9 fold
Kd [2]: 0.49 nM
koff [2]: 0.00029 s⁻¹
kon [2]: 580000 M⁻¹ s⁻¹
B18: anti-CD25 H1.14L1.20 (antibody, IgG1, V domains shown)
VH: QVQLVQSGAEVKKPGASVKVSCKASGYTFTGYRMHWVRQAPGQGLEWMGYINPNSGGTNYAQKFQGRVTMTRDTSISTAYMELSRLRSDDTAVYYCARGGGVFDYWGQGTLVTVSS
VL: B16 VL
notes: IgG1 format

Fold change in Kd vs. H0L0 [2]: 1.1 fold
Kd [2]: 0.23 nM
koff [2]: 0.00018 s⁻¹
kon [2]: 750000 M⁻¹ s⁻¹
B19: anti-CD25 H1.23L1.48 (antibody, V domains shown)
VH: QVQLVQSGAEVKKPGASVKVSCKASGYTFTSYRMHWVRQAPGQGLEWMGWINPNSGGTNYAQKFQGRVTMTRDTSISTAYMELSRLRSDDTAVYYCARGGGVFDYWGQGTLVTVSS
VL: B16 VL with L32M

Kd [5]: 1.4 nM
koff [5]: 0.00017 s⁻¹
kon [5]: 134000 M⁻¹ s⁻¹
B20: anti-VEGF H0L0 (Fab, V domains shown)
VH: EIQLVQSGPELKQPGETVRISCKASGYTFTNYGMNWVKQAPGKGLKWMGWINTYTGEPTYAADFKRRFTFSLETSASTAYLQISNLKNDDTATYFCAKYPHYYGSSHWYFDVWGAGTTVTVSS
VL: DIQMTQTTSSLSASLGDRVIISCSASQDISNYLNWYQQKPDGTVKVLIYFTSSLHSGVPSRFSGSGSGTDYSLTISNLEPEDIATYYCQQYSTVPWTFGGGTKLEIK
notes: also called anti-VEGF H0L0 (murine Fv); murine A4.6.1 Fv

Fold change in Kd vs. H0L0 [5]: -2.5 fold
Kd [5]: 3.5 nM
koff [5]: 0.00029 s⁻¹
kon [5]: 83000 M⁻¹ s⁻¹
fold difference in affinity against the chimeric antibody anti-VEGF H0L0 [6]: ≤ 3 fold
B21: anti-VEGF H1.33L1.51 (Fab, V domains shown)
VH: QVQLVQSGSELKKPGASVKVSCKASGYTFTNYGMNWVRQAPGQGLEWMGWINTYTGNPTYAQGFTGRFVFSLDTSVSTAYLQISSLKAEDTAVYYCAKYPHYYGSSHWYFDVWGAGTLVTVSS
VL: DIQMTQSPSSLSASVGDRVTITCQASQDISNYLNWYQQKPGKAPKVLIYFTSSLHSGVPSRFSGSGSGTDYTLTISSLQPEDFATYYCQQYDNLPWTFGGGTKLEIK
notes: Fab format, purified by Ni-NTA chromatography

fold difference in affinity against the chimeric antibody anti-TNFα H0L0 [7]: ≤ 3 fold
Kd [8]: 3.9 nM
koff [8]: 0.000874 s⁻¹
kon [8]: 223000 M⁻¹ s⁻¹
B22: Anti-TNFα H1.101L1.33 (Fab, V domains shown)
VH: EVQLVESGGGLVQPGGSLKLSCAASGFIFSNHWMNWVRQASGKGLEWVGEIRSKAINYATHYAESVKGRFTISRDDSKSTAYLQMNSLKTEDTAVYYCSRNYYGSTYDYWGQGTLVTVSS
VL: EIVLTQSPDFQSVTPKEKVTITCRASQFIGSSLHWYQQKPDQSPKLLIKYASESFSGVPSRFSGSGSGTDFTLTINSLEAEDAATYYCQQSHSWPFTFGSGTKLEIK
notes: Fab format

Kd [8]: 1.9 nM
koff [8]: 0.00116 s⁻¹
kon [8]: 605000 M⁻¹ s⁻¹
B23: Anti-TNFα H1L1 (Fab, V domains shown)
VH: B22 VH with A55S, Y58S, T80I, A81V
VL: B22 VL with E1D, V3L, I29V, L33I, F55M, V58I
notes: Fab format, purified by Ni-NTA chromatography; also called framework optimized anti-TNFα H1L1

fold difference in affinity against the chimeric antibody anti-TNFα H0L0 [7]: ≤ 3 fold
Kd [8]: 3.8 nM
koff [8]: 0.000776 s⁻¹
kon [8]: 200000 M⁻¹ s⁻¹
B24: Anti-TNFα H1.67L1.33 (Fab, V domains shown)
VH: B22 VH with I28T, N57S, E64A, S79N
VL: B22 VL
notes: Fab format

fold difference in affinity against the chimeric antibody anti-TNFα H0L0 [7]: ≤ 3 fold
Kd [8]: 1.8 nM
koff [8]: 0.00087 s⁻¹
kon [8]: 489000 M⁻¹ s⁻¹
B25: Anti-TNFα H1.45L1.33 (Fab, V domains shown)
VH: B22 VH with T80I, A81V
VL: B22 VL
notes: Fab format
